In paper PMC7111020 (2007):

Experiments:
[1] = target: the molecule itself; assay: sedimentation equilibrium analytical ultracentrifugation
mTIM-1 = target: T1, mTIM-1 (Mus musculus, UniProt Q5QNS5); assay: SPR
T1 chain: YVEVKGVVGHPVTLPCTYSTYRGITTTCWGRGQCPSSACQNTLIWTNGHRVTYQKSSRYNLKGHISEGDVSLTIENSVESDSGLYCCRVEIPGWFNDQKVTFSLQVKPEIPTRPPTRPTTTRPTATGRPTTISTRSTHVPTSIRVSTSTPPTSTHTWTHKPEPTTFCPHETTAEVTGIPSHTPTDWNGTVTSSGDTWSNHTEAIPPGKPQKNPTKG

| Binder | Kd [1] [µM] | Kd (mTIM-1) [µM] |
| --- | --- | --- |
| mTIM-2 20-129 (protein) ESHTAVQGLAGHPVTLPCIYSTHLGGIVPMCWGLGECRHSYCIRSLIWTNGYTVTHQRNSLYQLKGNISEGNVSLTIENTVVGDGGPYCCVVEIPGAFHFVDYMLEVKPE | ~300 |  |
| mTIM-1 ECD (protein) YVEVKGVVGHPVTLPCTYSTYRGITTTCWGRGQCPSSACQNTLIWTNGHRVTYQKSSRYNLKGHISEGDVSLTIENSVESDSGLYCCRVEIPGWFNDQKVTFSLQVKPEIPTRPPTRPTTTRPTATGRPTTISTRSTHVPTSIRVSTSTPPTSTHTWTHKPEPTTFCPHETTAEVTGIPSHTPTDWNGTVTSSGDTWSNHTEAIPPGKPQKNPTKG |  | ~0.6 |
